# According to patent US20090142377A1:
# Target: dH5-II (cdH5-0 heat-cycled at pH 2, back to pH 7) (influenza A virus H5N1 strain A/Vietnam/1203/04), Q8QPL1
# Assay: ELISA, coated H5 form, tPA series with excess e-amino caproic acid
# Conditions: remark: other sources report otherwise
binder,measurement,value
"tissue type plasminogen activator (tPA; Actilyse, Boehringer-Ingelheim), P00750 36-562 (enzyme) SYQVICRDEKTQMIYQQHQSWLRPVLRSNRVEYCWCNSGRAQCHSVPVKSCSEPRCFNGGTCQQALYFSDFVCQCPEGFAGKCCEIDTRATCYEDQGISYRGTWSTAESGAECTNWNSSALAQKPYSGRRPDAIRLGLGNHNYCRNPDRDSKPWCYVFKAGKYSSEFCSTPACSEGNSDCYFGNGSAYRGTHSLTESGASCLPWNSMILIGKVYTAQNPSAQALGLGKHNYCRNPDGDAKPWCHVLKNRRLTWEYCDVPSCSTCGLRQYSQPQFRIKGGLFADIASHPWQAAIFAKHRRSPGERFLCGGILISSCWILSAAHCFQERFPPHHLTVILGRTYRVVPGEEEQKFEVEKYIVHKEFDDDTYDNDIALLQLKSDSSRCAQESSVVRTVCLPPADLQLPDWTECELSGYGKHEALSPFYSERLKEAHVRLYPSSRCTSQHLLNRTVTDNMLCAGDTRSGGPQANLHDACQGDSGGPLVCLNDGRMTLVGIISWGLGCGQKDVPGVYTKVTNYLDWIRDNMRP",Bmax,0.07
same,Kd,19 nM
